From US20110191903A1, “ENGINEERING PLANT RESISTANCE TO DISEASES CAUSED BY PATHOGENS” (Pioneer Hi-Bred International, Inc., priority 2009, published 2011)
Residue numbers refer to the chain shown, from its start. Names and notes keep the numbering of the source.

How the values were obtained:
Format in all cases: biochemical, Ceriporiopsis subvermispora
[1] = substrate: O=C(O)C(=O)O; assay: Oxalate oxidase kinetics, coupled horse radish peroxidase assay, FG10
From the text: (§1) The E. coli expression system was based on the published protocol of Escutia et al. Escutia et al., Cloning and sequencing of two Ceriporiopsis subvermispora bicupin oxalate oxidase allelic isoforms: implications for the reaction specificity of oxalate oxidases and decarboxylases. (2005). The coding sequence for the mature OXOX enzyme was inserted in E. coli expression vector pET32 (Invitrogen) to include a 6× histidine tag at the C-terminus. The resulting expression plasmid was transformed into E. coli strain BL21Star pLysS (Invitrogen).
(§2) E. coli cultures were grown at 37° C. At optical density 0.4, arabinose was added to a concentration or 0.4%. After another hour of growth at 37° C., MnCl2 was added to 5 mM and IPTG to 1 mM. Cultures were then grown at 25° C. for 16 hours. Cells were harvested by centrifugation at 4000 rpm for 10 min. The supernatant was discarded and cell pellets were kept at −80° C. for at least one hour. Pellets were resuspended in total 40 ml of lysis buffer with 50 mM phosphate buffer pH7, 2 mg/ml protease inhibitor (sigma P-8465), 100 mM KCL, 1/1000 lysozyme, 1/2000 endonuclease, and incubated at 37° C. with shaking for one hour, followed by sonication. Cellular debris was removed by centrifugation and the clarified supernatant was poured into a new tube. Nickel resin (Qiagen) was added. After a short period of incubation, the slurry was poured onto a column and washed with buffer. Purified OXOX protein was eluted from the resin in 50 mM succinate pH 5, 100 mM KCl. The E. coli expression procedure was scalable allowing large scale protein production for kinetic analysis as well as small scale production for high throughput screening of libraries.
(§3) Oxalate oxidase enzymatic activity was determined in a coupled reaction. Oxalate oxidase converts oxalic acid to carbon dioxide and hydrogen peroxide. In the presence of horse radish peroxidase, hydrogen peroxide reacts with 3-methyl-2-benzothiazolinone hydrazone (MBTH) and N,N-dimethylaniline (DMA) to form indamine dye, which can be detected spectrophotmetrically or colorimetrically as described by Laker, M. F., Hoffman, A. F., and Meeuse, J. D. (1980) Clinical Chemistry 26, 827-830. The coupled reaction was used for characterization of oxalate oxidase kinetic properties as well as in a screening procedure to identify oxalate oxidase variants with improved enzymatic properties.
(§4) DNA shuffling was performed as described elsewhere herein. A polymerase chain reaction product corresponding to the OXOX-C coding sequence was fragmented by limited nuclease treatment. Synthetic oligonucleotides encoding sequence diversity from oxalate decarboxylase sequences found in public databases were added. A polymerase chain reaction procedure was performed on the mixture to yield a library of full length OXOX-C coding sequences with additional diversity incorporated. The resulting library was inserted in expression vector pET32, E. coli cells were transformed and protein was expressed, as described in Example 2. A tiered screening strategy was devised based on the OXOX protein expression and enzymatic activity determination procedures described in Examples 2 and 3, respectively. A high throughput screening process based on colorimetric determination of OXOX activity was utilized to identify individual E. coli strains harboring active OXOX variants. These OXOX-active strains were reassayed using quantitative spectrophotometric determination of OXOX activity. […] Three rounds of this iterative screening and selection procedure were completed, and OXOX variants with up to 8-fold improved activity were identified
(§5) More modest improvements in Km and Kcat were observed under lower pH conditions. Coupled reaction was preformed as described in Example 3. Enzyme kinetic parameters were determined by standard methods as described in Segel (1976) Biochemical calculations, 2nd Edition. John Wiley & Sons, London, New York, Sydney, Toronto.

[2] = substrate: O=C(O)C(=O)O; assay: Oxalate oxidase kinetics, coupled horse radish peroxidase assay, ALT1 (WT-Q7)
From the text: as §1, §2, §3
Three potential glycosylations sites with the consensus amino acid sequence N—X—(S/T) were identified in OXOX-C at amino acid positions 60, 384 and 430 in SEQ ID NO:27. Site-directed mutagenesis was used to alter these sites (Quickchange, Stratagene). Every possible amino acid substitution was generated at the third amino acid position of each potential glyosylation site. The resulting variants were screened for activity using the enzymatic assay described in Example 3. […] These variants correspond to sequences OXOX-C-MOD1-ALT1 (SEQ ID NO:23) and OXOX-C-MOD1-ALT2 (SEQ ID NO:24).
as §5

[3] = substrate: O=C(O)C(=O)O; assay: Oxalate oxidase kinetics, coupled horse radish peroxidase assay, OXOX-C
From the text: Sequences of both OXOX C and G alleles were published by Escutia et al., 2005 and were deposited with EMBL: OXOX-C partial genomic DNA, Acession No. AJ746414; OXOX-C partial cDNA, Acession No. AJ563659; OXOX-G genomic DNA, Acession No. AJ563660; OXOX-G cDNA, Acession No. AJ746412. See also, Escutia et al., Cloning and sequencing of two Ceriporiopsis subvermispora bicupin oxalate oxidase allelic isoforms: implications for the reaction specificity of oxalate oxidases and decarboxylases. (2005). Based on published sequence, mature proteins of OXOX C (SEQ ID NO: 21) and G (SEQ ID NO: 22) were synthesized and fused to N-terminal barley alpha amylase signal sequence (BAA ss; SEQ ID NO:3). The fungal OXOX coding sequence was synthesized with codon usage suitable for expression in soybean (FIG. 1A) and E. coli (FIG. 1B).
as §1, §2, §3, §5

[4] = substrate: O=C(O)C(=O)O; assay: Oxalate oxidase kinetics, coupled horse radish peroxidase assay, ALT4 (1-23)
From the text: as §1, §2, §3, §4, §5

[5] = substrate: O=C(O)C(=O)O; assay: Oxalate oxidase kinetics, coupled horse radish peroxidase assay, ALT3 (1-8)
From the text: as §1, §2, §3, §4, §5

B1: Ceriporiopsis subvermispora oxalate oxidase OXOX-C variant FG10 (3-FG10), D53N/I60E/E65Q/K72E/S115T/Q171E/R174K/M192V/I278V/Y282F/Y359F/V399I/G436A plus S437, … (protein)
chain: RPTENGPQIVIANNAGTYLPVLRGSGTKSSSAADATQTVPFASDDPNPRLWNIDTKNLEKVTPQRGQLGAEILGPDNLPIDLQNADTLAPPTTDSGSIPNPKWPFALSHNTLYTGGWVRIQNDEVMPIAKAMAGVNMRLEAGAIRELHWHNTPEWAYILKGTTQITAVDENGKNYLANVGPGDLWYFPEGVPHSLQGTDANNEGSEFLLIFPDGTFDSSNQFMITDWLAHTPKDVIAKNFGVDISEFDRLPSHDLYIFPGVAPPLDAKAPEDPQGTVPLPFSFEFSKVKPTQYAGGTVKIADTRTFPIAKTISVAEVTVEPGAMRELHWHPTEDEWTFFIEGQARVTIFAGQSNAQTFDYQGGDIAYIPTAWGHYVENSGNTQLRFLEIFNSPLFEDISLAQWIANTPPAIVKATLQLSDEVINTLNKQKAFVVASD
notes: C-terminal 6xHis, pET32, E. coli, nickel purified
Km ([1]; other: pH 3.8, pH 3.8): 400 µM
kcat ([1]; other: pH 3.8, pH 3.8): 8.01 s⁻¹
Km ([1]; other: pH 4.8, pH 4.8): 1830 µM
kcat ([1]; other: pH 4.8, pH 4.8): 6.00 s⁻¹
Km ([1]; other: pH 5.8, pH 5.8): 5900 µM
kcat ([1]; other: pH 5.8, pH 5.8): 2.65 s⁻¹

B2: Ceriporiopsis subvermispora oxalate oxidase OXOX-C variant ALT1 (WT-Q7), glycosylation minus, T60I/T384Q/S430Q relative to SEQ ID NO: 37, SEQ ID NO: 23 … (protein)
chain: RPTENGPQIVIANNAGTYLPVLRGSGTKSSSAADATQTVPFASDDPNPRLWDIDTKNLIKVTPERGQLGAKILGPDNLPIDLQNADTLAPPTTDSGSIPNPKWPFALSHNTLYSGGWVRIQNDEVMPIAKAMAGVNMRLEAGAIRELHWHNTPEWAYILKGTTQITAVDQNGRNYLANVGPGDLWYFPEGMPHSLQGTDANNEGSEFLLIFPDGTFDSSNQFMITDWLAHTPKDVIAKNFGVDISEFDRLPSHDLYIFPGVAPPLDAKAPEDPQGTIPLPYSFEFSKVKPTQYAGGTVKIADTRTFPIAKTISVAEVTVEPGAMRELHWHPTEDEWTFFIEGQARVTIFAGQSNAQTYDYQGGDIAYIPTAWGHYVENSGNTQLRFLEIFNSPLFEDVSLAQWIANTPPAIVKATLQLSDEVINTLNKQKAFVVG
notes: glycosylation sites removed
Km ([2]; other: pH 3.8, pH 3.8): 330 µM
kcat ([2]; other: pH 3.8, pH 3.8): 5.00 s⁻¹
Km ([2]; other: pH 4.8, pH 4.8): 1210 µM
kcat ([2]; other: pH 4.8, pH 4.8): 2.70 s⁻¹
Km ([2]; other: pH 5.8, pH 5.8): 6010 µM
kcat ([2]; other: pH 5.8, pH 5.8): 0.85 s⁻¹

B3: Ceriporiopsis subvermispora oxalate oxidase OXOX-C, SEQ ID NO: 18 (Gelatoporia subvermispora B) (protein)
chain: B2 chain with I59T, Q383T, Q429S
Km ([3]; other: pH 3.8, pH 3.8): 350 µM
kcat ([3]; other: pH 3.8, pH 3.8): 5.45 s⁻¹
Km ([3]; other: pH 4.8, pH 4.8): 1240 µM
kcat ([3]; other: pH 4.8, pH 4.8): 2.74 s⁻¹
Km ([3]; other: pH 5.8, pH 5.8): 5950 µM
kcat ([3]; other: pH 5.8, pH 5.8): 0.91 s⁻¹

B4: Ceriporiopsis subvermispora oxalate oxidase OXOX-C variant ALT4 (1-23), W118Y/I166V/F259Y/I278V/Y282F/F339Y/F396Y relative to OXOX-C-ALT1 (SEQ ID NO: 35), SEQ … (protein)
chain: B2 chain with W117Y, I165V, F258Y, I277V, Y281F, F338Y, F395Y
Km ([4]; other: pH 3.8, pH 3.8): 350 µM
kcat ([4]; other: pH 3.8, pH 3.8): 4.08 s⁻¹
Km ([4]; other: pH 4.8, pH 4.8): 1320 µM
kcat ([4]; other: pH 4.8, pH 4.8): 2.70 s⁻¹
Km ([4]; other: pH 5.8, pH 5.8): 5510 µM
kcat ([4]; other: pH 5.8, pH 5.8): 0.85 s⁻¹

B5: Ceriporiopsis subvermispora oxalate oxidase OXOX-C variant ALT3 (1-8), I54M/I99V/W118Y/F259Y/I278V/F339Y/F396Y relative to OXOX-C-ALT1 (SEQ ID NO: 35), SEQ ID … (protein)
chain: B2 chain with I53M, I98V, W117Y, F258Y, I277V, F338Y, F395Y
Km ([5]; other: pH 3.8, pH 3.8): 310 µM
kcat ([5]; other: pH 3.8, pH 3.8): 4.69 s⁻¹
Km ([5]; other: pH 4.8, pH 4.8): 1700 µM
kcat ([5]; other: pH 4.8, pH 4.8): 3.21 s⁻¹
Km ([5]; other: pH 5.8, pH 5.8): 8380 µM
kcat ([5]; other: pH 5.8, pH 5.8): 1.36 s⁻¹
